Laboratory results published in article PMC4958245.

Target: recombinant Fc−ICAM-1 (human) (UniProt P05362)
Experiment: BLI; Octet QKe; DBLβ domains on an Fc−ICAM-1 probe; apparent Kd from double-reference-subtracted data of three concentrations, global 1:1 Langmuir fit

Chain of UniProt P05362 (P05362 28-480): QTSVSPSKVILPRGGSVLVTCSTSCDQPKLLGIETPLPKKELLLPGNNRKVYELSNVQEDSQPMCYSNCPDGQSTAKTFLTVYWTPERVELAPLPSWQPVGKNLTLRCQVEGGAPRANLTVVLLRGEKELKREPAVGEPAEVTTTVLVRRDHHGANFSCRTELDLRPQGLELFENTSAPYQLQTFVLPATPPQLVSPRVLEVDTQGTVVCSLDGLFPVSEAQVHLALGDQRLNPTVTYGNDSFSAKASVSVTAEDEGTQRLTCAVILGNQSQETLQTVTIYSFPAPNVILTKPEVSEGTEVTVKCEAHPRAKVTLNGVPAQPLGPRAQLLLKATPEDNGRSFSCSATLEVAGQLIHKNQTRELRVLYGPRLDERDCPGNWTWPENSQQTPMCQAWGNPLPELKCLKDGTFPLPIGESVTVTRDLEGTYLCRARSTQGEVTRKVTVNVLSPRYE

“IT4var07DBLβ1 (N726-C1211) (domain or fragment)” gave a Kd of 8.7 nM.
